These results are taken from article doi:10.1101/2022.04.12.487901 (bioRxiv, 2022).

The series “cryo-EM structure” concerns the molecule itself. In words: cryo-EM structure.
Series [1] has as its target T1, CHMP3 full length (residues 1-222) (human, UniProt Q9Y3E7 1-222).
T1 sequence (looked up): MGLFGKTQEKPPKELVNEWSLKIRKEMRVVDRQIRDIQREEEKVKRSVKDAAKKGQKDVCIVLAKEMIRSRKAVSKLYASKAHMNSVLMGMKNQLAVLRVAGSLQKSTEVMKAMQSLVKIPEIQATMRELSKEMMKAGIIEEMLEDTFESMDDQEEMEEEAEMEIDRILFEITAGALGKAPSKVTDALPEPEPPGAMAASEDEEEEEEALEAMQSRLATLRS
In words: cryo-EM structure.

Series [2] deals with T1, CHMP3 full length (residues 1-222). In words: negative staining EM of polymer.
Series [3] concerns the target T2, CHMP3_K112A, K119A, K132A, K136A (human, UniProt Q9Y3E7 9-183, K112A | K119A | K132A | K136A).
T2 sequence (looked up): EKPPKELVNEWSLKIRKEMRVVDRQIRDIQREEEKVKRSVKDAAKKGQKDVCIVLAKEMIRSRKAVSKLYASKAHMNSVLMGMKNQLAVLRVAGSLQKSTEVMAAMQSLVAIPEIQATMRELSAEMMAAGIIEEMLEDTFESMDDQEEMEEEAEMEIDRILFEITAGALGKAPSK
The series is described as follows: negative staining EM of polymer.

The target in another series is T3, CHMP3_S75C (human, UniProt Q9Y3E7 9-183, S75C).
T3 sequence (looked up): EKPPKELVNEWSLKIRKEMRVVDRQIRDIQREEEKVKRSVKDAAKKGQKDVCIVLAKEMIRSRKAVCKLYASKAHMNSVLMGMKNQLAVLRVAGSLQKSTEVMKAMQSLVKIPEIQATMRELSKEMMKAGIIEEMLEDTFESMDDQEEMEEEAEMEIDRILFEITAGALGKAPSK
The series is described as follows: cross-linking.

For another series, the target named is T4, CHMP3_V110C (human, UniProt Q9Y3E7 9-183, V110C).
T4 sequence (looked up): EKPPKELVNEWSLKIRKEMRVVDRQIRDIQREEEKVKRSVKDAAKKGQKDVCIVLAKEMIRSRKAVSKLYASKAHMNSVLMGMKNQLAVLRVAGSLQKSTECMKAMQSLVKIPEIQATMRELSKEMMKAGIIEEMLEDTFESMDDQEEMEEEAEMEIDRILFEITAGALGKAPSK
The series is described as follows: cross-linking.

B1: CHMP2AΔC (C-terminally truncated CHMP2A, residues 1-161), MBP removed (domain or fragment, human, UniProt O43633 1-161, looked up)
chain: MDLLFGRRKTPEELLRQNQRALNRAMRELDRERQKLETQEKKIIADIKKMAKQGQMDAVRIMAKDLVRTRRYVRKFVLMRANIQAVSLKIQTLKSNNSMAQAMKGVTKAMGTMNRQLKLPQIQKIMMEFERQAEIMDMKEEMMNDAIDDAMGDEEDEEESD
In the case of B1, the binding result (in “cryo-EM structure”; in series [1]) was “binds” in each case.

B2: CHMP2AΔC (residues 1-161) wild type, MBP fusion as used for tube formation without membrane coating (domain or fragment, human, UniProt O43633 1-161, looked up)
chain: MDLLFGRRKTPEELLRQNQRALNRAMRELDRERQKLETQEKKIIADIKKMAKQGQMDAVRIMAKDLVRTRRYVRKFVLMRANIQAVSLKIQTLKSNNSMAQAMKGVTKAMGTMNRQLKLPQIQKIMMEFERQAEIMDMKEEMMNDAIDDAMGDEEDEEESD
Turning to B2, the binding result in series [2] and in series [3] was “binds” in each case.

B3: CHMP2A_D57C (domain or fragment, human, UniProt O43633 9-161, looked up)
chain: KTPEELLRQNQRALNRAMRELDRERQKLETQEKKIIADIKKMAKQGQMCAVRIMAKDLVRTRRYVRKFVLMRANIQAVSLKIQTLKSNNSMAQAMKGVTKAMGTMNRQLKLPQIQKIMMEFERQAEIMDMKEEMMNDAIDDAMGDEEDEEESD
Turning to B3, the binding result in the series with CHMP3_S75C is “binds”.

B4: CHMP2A_N18C (domain or fragment, human, UniProt O43633 9-161, looked up)
chain: KTPEELLRQCQRALNRAMRELDRERQKLETQEKKIIADIKKMAKQGQMDAVRIMAKDLVRTRRYVRKFVLMRANIQAVSLKIQTLKSNNSMAQAMKGVTKAMGTMNRQLKLPQIQKIMMEFERQAEIMDMKEEMMNDAIDDAMGDEEDEEESD
For the molecule B4, the binding result in the series with CHMP3_V110C is recorded as “binds”.
